These results are taken from patent publication US12331110B2, “Monoclonal antibodies against endotrophin and the use thereof” (THE BOARD OF REGENTS OF THE UNIVERSITY OF TEXAS SYSTEM, priority 2018, dated 2025).

Assay [1] deals with SC macrophage cells. The assay is described as follows: SC macrophage trans-well migration towards ETP transfected MCF7 cells. The assay is classed as cell-based, human. The following applies: 10, 2, 0.4, 0.08 μg/mL antibody, 2 hr. The procedure:
FIGS. 3A-D. Generation and screening of anti-human endotrophin. (FIG. 3A) MCF7 breast cancer cells (20,000 cells) were plated into a 96-well plate. Cells were then treated with 10 μm cisplatin, 10 μm cisplatin/100 ng/mL endotrophin, and 10 μm cisplatin/100 ng/mL endotrophin/10 μg/mL ETPmAb4 for 24 hr. Cell survival was measured using a CellTiter One Solution Cell Proliferation Assay. Statistical significance of the curve fit parameters was tested using the extra sum of squares F test with P<0.05 considered significant. Goodness of curve fit is described using r2. Mean±SEM, n=3. (FIG. 3B) ETP transfected MCF7 cells (100,000 cells) were plated into a 24-well plate with 500 μL media. Then 4 μL of supernatant was loaded for Western blotting. It is estimated that approximately 1 ng of ETP was loaded, compared with the standard ETP (2 ng band). The concentration yields approximately 0.052 pg secreted ETP/hr/cell. (FIG. 3C) Total RNA was extracted from MCF7, HCC1395, MDAMB231, ZR-75 and MDAMB453 cells. ETP expression was determined by qRT-PCR and normalized to GAPDH. […] Migrated cells were counted after a 2 hr incubation. In all cases, data was represented as mean±SD, and statistical significance (*** p<0.0001) was calculated using an unpaired Student's t-test.
Primary Culture of Human Cells and Transwell Assays. […] Migrated cells were then counted after 2 hr. […]

Assay [2] deals with MDA-MB-231 cells. Nature of the assay: MDA-MB-231 tumor growth in nude mice. The assay is classed as in vivo. The protocol: FIGS. 6A-D. The antibody effects on MDA-MB-231 cells in vivo. (FIG. 6A) MDA-MB-231 cells (2×10^6 cells) were implanted into nude mice. Then 2.5 mg/kg of cisplatin and 20 mg/kg of ETPmAb4 antibody (twice a week) were injected after 10-days implantation for 5-weeks. Tumor volume was determined by caliper measurement. The insert reflects a simplified analysis of control antibody versus ETPmAb4 with associated statistics. (FIG. 6B) MDA-MB-231 cells (2×10^6 cells) were implanted into nude mice. Treatment was started when the tumor volume was over 30 mm^3. At that point, 2.5 mg/kg of cisplatin and 20 mg/kg of ETPmAb4 antibody (twice weekly) were injected for 5-weeks. Tumor volumes were determined by caliper measurements. The insert reflects a simplified analysis of control antibody versus ETPmAb4 with associated statistics. (FIG. 6C) SKOV3 cells (2×10^6 cells) were implanted into nude mice. Then 2.5 mg/kg of cisplatin and 20 mg/kg of ETPmAb4 antibody (twice weekly) were injected 10-days after implantation for 5-weeks. Tumor volumes were determined by caliper measurements. The insert reflects a simplified analysis of control antibody versus ETPmAb4 with associated statistics. (FIG. 6D) MDA-MB-231 cells (2×10^6 cells) were implanted into nude mice. Then 2.5 mg/kg of cisplatin, 20 mg/kg of ETPmAb4 antibody and 20 mg/kg of humanized ETPmAb4 antibody (twice a week) were injected after 10-days implantation for 5-weeks. Tumor volume was determined by caliper measurement. […]
Animal experiments. […] Tumors were measured twice a week, beginning 10 days after injection, and tumor volume was calculated by length×(width) 2/2 (mm^3).
Analysis of Tumor Progression. Tumor onset was monitored twice weekly by palpation. Tumor sizes were measured using a digital caliper twice weekly and the volumes were calculated as length× width2)/2. […] Animals were sacrificed when the tumor burden visibly affected the host, or when the tumors reached the IACUC pre-determined limit of 20 mm along one axis. […]
After humanization, the binding affinity of hETPmAb4 to endotrophin was measured in Octet RED96. […]

B1: ETP-mAb4: rabbit monoclonal anti-human endotrophin antibody selected for further study; VH SEQ ID NO: 125, VL SEQ ID NO: 126 (antibody, V domains shown)
VH: SSRVKESGGDLVKPGASLTLTCKASGFSFSSGYYICWVRQAPGKGLEWIACIYGGNNNPYYANWVNGRFTTSKTSSTTVTLQMTNLTGADTATYFCARKDINIGGAYELWGPGTLVTISS
VL: ELVMTQTPASVSEPVGGTVTINCQASQSISSSYLSWYQQKPGQPPKLLIYKASTLASGVPSRFKGSGSGTQFSLTISDLECADAATYYCQYSDWANSYGNAFGGGTEVVVK
Consider B1, for which the “migration of SC macrophages into the bottom chamber” value in assay [1] is “effectively prevented the migration”. Further, the “lesion growth, combination with cisplatinum” value in assay [2] (20 mg/kg antibody plus 2.5 mg/kg cisplatin) was “essentially inhibited lesion growth”. Moreover, the “rate of tumor growth, antibody alone” value in assay [2] (20 mg/kg twice a week) was “significantly reduced the rate of tumor growth”.
